According to patent US20090074722A1, “Products and methods for treating PTP lar diseases” (MAX-PLANCK-GESELLSCHAFT ZUR, priority 1999, published 2009):

Legend:
[1] = biological target: T1, plakoglobin (Homo sapiens, UniProt P14923); assay: In vitro binding assay (GST pull-down), plakoglobin; conditions: lysates of pervanadate treated 293 cells overexpressing plakoglobin
T1 construct: expressed in transfected cells; host or cells: human embryonic kidney 293 cells, transient, pervanadate-treated, used as lysate; the GST-PTP LARi partner was made in E. coli
T1 sequence (P14923 1-745): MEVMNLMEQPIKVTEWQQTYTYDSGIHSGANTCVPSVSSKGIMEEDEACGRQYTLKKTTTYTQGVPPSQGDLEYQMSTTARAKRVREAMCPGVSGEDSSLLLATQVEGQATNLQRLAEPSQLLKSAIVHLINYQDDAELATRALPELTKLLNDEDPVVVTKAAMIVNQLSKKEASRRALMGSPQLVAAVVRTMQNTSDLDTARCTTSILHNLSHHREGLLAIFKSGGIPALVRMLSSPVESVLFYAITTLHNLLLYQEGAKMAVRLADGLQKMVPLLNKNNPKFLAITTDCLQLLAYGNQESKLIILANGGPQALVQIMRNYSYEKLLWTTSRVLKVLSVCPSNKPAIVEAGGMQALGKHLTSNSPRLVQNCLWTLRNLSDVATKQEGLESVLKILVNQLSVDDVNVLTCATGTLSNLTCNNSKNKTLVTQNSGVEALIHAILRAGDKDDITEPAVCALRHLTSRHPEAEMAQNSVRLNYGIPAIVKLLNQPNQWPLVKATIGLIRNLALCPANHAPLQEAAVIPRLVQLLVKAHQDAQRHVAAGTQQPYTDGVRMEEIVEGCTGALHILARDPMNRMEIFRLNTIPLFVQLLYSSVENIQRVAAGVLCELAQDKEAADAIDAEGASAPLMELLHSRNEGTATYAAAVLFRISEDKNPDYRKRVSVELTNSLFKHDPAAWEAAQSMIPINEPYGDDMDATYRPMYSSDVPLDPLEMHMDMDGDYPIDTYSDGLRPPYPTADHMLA
Procedure: (§1) After 24 h of serum starvation, the cells were stimulated with pervanadate for 10 minutes before lysis. Equal amounts of lysats were incubated with the GST-PTP LAR cytoplasmic fusion protein (GST-PTP LARi) or a threefold molar excess of GST. Lysates of control vector transfected 293 cells were incubated with the GST-PTP LAR cytoplasmic fusion protein (GST-PTP LARi). Complexes were immobilized on glutathione-sepharose, and precipitates were separated by SDS-PAGE. Bound proteins were analyzed by Western blotting with an anti-β-catenin antibody (left) or an antibody against plakoglobin (right). Arrows indicate the proteins of interest. Molecular mass standards in kilodaltons are shown on the left. […]
(§2) To investigate the potential association of PTP LAR with the cadherin/catenin-complex in intact cells, subconfluent human MCF7 cells were stimulated with EGF, were lysed, and were immunoprecipitated with antibodies either against PTP LAR or the cadherin/catenin-complex. Western blotting analysis with specific antibodies to β-catenin and E-cadherin (FIG. 5A) or plakoglobin and E-cadherin (FIG. 5B) detected these proteins in anti-human PTP LAR immunoprecipitates with the monoclonal antibody 11.1A against the extracellular domain of human PTP LAR and vice versa. […]

[2] = biological target: T2, β-catenin (Homo sapiens, UniProt P35222); assay: In vitro binding assay (GST pull-down), β-catenin; conditions: lysates of pervanadate treated 293 cells overexpressing β-catenin
T2 construct: expressed in transfected cells; host or cells: human embryonic kidney 293 cells, transient, pervanadate-treated, used as lysate; the GST-PTP LARi partner was made in E. coli
T2 sequence (P35222 2-781): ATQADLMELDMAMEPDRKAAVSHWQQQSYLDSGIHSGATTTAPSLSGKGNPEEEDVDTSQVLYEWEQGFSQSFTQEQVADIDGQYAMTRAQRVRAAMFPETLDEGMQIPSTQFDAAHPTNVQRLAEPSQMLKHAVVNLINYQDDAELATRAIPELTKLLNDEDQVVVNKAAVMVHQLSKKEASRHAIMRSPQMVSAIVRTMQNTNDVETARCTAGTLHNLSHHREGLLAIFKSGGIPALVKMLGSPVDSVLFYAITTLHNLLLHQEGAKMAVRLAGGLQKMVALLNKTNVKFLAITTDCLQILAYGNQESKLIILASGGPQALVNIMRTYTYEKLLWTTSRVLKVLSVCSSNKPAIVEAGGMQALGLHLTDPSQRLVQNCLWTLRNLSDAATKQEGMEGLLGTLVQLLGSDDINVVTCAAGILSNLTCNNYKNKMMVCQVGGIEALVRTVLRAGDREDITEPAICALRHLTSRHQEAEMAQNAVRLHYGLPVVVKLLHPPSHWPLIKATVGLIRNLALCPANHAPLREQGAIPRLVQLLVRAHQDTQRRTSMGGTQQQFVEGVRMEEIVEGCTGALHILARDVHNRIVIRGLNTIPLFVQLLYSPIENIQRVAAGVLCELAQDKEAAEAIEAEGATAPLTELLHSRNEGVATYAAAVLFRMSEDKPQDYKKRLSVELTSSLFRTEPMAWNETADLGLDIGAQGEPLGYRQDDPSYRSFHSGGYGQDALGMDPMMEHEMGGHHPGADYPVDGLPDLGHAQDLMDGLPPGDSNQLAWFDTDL
Procedure: as §1, §2

association with plakoglobin [1]: associate specifically | association with β-catenin [2]: associate specifically
B1: GST-PTP LAR cytoplasmic: GST fusion protein comprising the entire cytoplasmic domain (amino acids 1259-1881) of human PTP LAR (protein)
chain: PEMLWVTGPVLAVILIILIVIAILLFKRKRTHSPSSKDEQSIGLKDSLLAHSSDPVEMRRLNYQTPGMRDHPPIPITDLADNIERLKANDGLKFSQEYESIDPGQQFTWENSNLEVNKPKNRYANVIAYDHSRVILTSIDGVPGSDYINANYIDGYRKQNAYIATQGPLPETMGDFWRMVWEQRTATVVMMTRLEEKSRVKCDQYWPARGTETCGLIQVTLLDTVELATYTVRTFALHKSGSSEKRELRQFQFMAWPDHGVPEYPTPILAFLRRVKACNPLDAGPMVVHCSAGVGRTGCFIVIDAMLERMKHEKTVDIYGHVTCMRSQRNYMVQTEDQYVFIHEALLEAATCGHTEVPARNLYAHIQKLGQVPPGESVTAMELEFKLLASSKAHTSRFISANLPCNKFKNRLVNIMPYELTRVCLQPIRGVEGSDYINASFLDGYRQQKAYIATQGPLAESTEDFWRMLWEHNSTIIVMLTKLREMGREKCHQYWPAERSARYQYFVVDPMAEYNMPQYILREFKVTDARDGQSRTIRQFQFTDWPEQGVPKTGEGFIDFIGQVHKTKEQFGQDGPITVHCSAGVGRTGVFITLSIVLERMRYEGVVDMFQTVKTLRTQRPAM
